Legend:
[1] = biological target: T1, Insulin-like Growth Factor 1 Receptor (IGF-1R), endogenous, of C8161 and A375 melanoma cells (human, UniProt P08069); assay: co-immunoprecipitation from C8161 tumours of mice treated with the small molecule INT2-31, densitometry of Western blot
Method: (§1) (p<0.05). […] To assess the in vivo effects of INT2-31 on cell proliferation, C8161 xenografts were stained with Ki67 antibody (FIG. 20C). […] The effect of INT2-31 on the in vivo interaction of FAK and IGF-1R in C8161 tumors was analyzed by immunoprecipitation of FAK from treated and untreated tumor. […] Finally, tumor analysis for AKT activation was performed and the level of p-AKT was detected by Western blot. […] Therefore, our lead compound, INT2-31, decreases in vivo tumor growth, disrupts the in vivo interaction of FAK and IGF-1R and results in a decrease in phosphorylation of AKT.

[2] = biological target: T1, Insulin-like Growth Factor 1 Receptor …; assay: co-immunoprecipitation from C8161 tumours of PBS treated mice, densitometry of Western blot
Method: as §1

B1: Focal adhesion kinase (FAK), endogenous, of C8161 and A375 melanoma cells (enzyme)
chain: AAAYLDPNLNHTPNSSTKTHLGTGMERSPGAMERVLKVFHYFESNSEPTTWASIIRHGDATDVRGIIQKIVDSHKVKHVACYGFRLSHLRSEEVHWLHVDMGVSSVREKYELAHPPEEWKYELRIRYLPKGFLNQFTEDKPTLNFFYQQVKSDYMLEIADQVDQEIALKLGCLEIRRSYWEMRGNALEKKSNYEVLEKDVGLKRFFPKSLLDSVKAKTLRKLIQQTFRQFANLNREESILKFFEILSPVYRFDKECFKCALGSSWIISVELAIGPEEGISYLTDKGCNPTHLADFTQVQTIQYSNSEDKDRKGMLQLKIAGAPEPLTVTAPSLTIAENMADLIDGYCRLVNGTSQSFIIRPQKEGERALPSIPKLANSEKQGMRTHAVSVSETDDYAEIIDEEDTYTMPSTRDYEIQRERIELGRCIGEGQFGDVHQGIYMSPENPALAVAIKTCKNCTSDSVREKFLQEALTMRQFDHPHIVKLIGVITENPVWIIMELCTLGELRSFLQVRKYSLDLASLILYAYQLSTALAYLESKRFVHRDIAARNVLVSSNDCVKLGDFGLSRYMEDSTYYKASKGKLPIKWMAPESINFRRFTSASDVWMFGVCMWEILMHGVKPFQGVKNNDVIGRIENGERLPMPPNCPPTLYSLMTKCWAYDPSRRPRFTELKAQLSTILEEEKAQQEERMRMESRRQATVSWDSGGSDEAPPKPSRPGYPSPRSSEGFYPSPQHMVQTNHYQVSGYPGSHGITAMAGSIYPGQASLLDQTDSWNHRPQEIAMWQPNVEDSTVLDLRGIGQVLPTHLMEERLIRQQQEMEEDQRWLEKEERFLKPDVRLSRGSIDREDGSLQGPIGNQHIYQPVGKPDPAAPPKKPPRPGAPGHLGSLASLSSPADSYNEGVKLQPQEISPPPTANLDRSNDKVYENVTGLVKAVIEMSSKIQPAPPEEYVPMVKEVGLALRTLLATVDETIPLLPASTHREIEMAQKLLNSDLGELINKMKLAQQYVMTSLQQEYKKQMLTAAHALAVDAKNLLDVIDQARLKMLGQTRPH
densitometry ratio of IGF-1R to FAK [1]: 0.78
densitometry ratio of IGF-1R to FAK [2]: 0.98
